Patent US20050058645A1 (ZENYTH OPERATIONS, published 2005)

Assays:
[1] = target: T1, chimeric human IL-13Rα1-Fc (human, UniProt P78552 22-343); assay: ELISA; 1D9 dose-response, inhibition of chimeric human IL-13Rα1-Fc binding to plate bound IL-13; ELISA dose-response; inhibition of chimeric human IL-13Rα1-Fc binding to IL-13
T1 construct: Bought (R & D Systems); Extracellular domain of IL-13Rα1 fused to Fc of human IgG; Expressed as preformed disulphide-bonded dimer; also called hIL-13Rα1-Fc; chimeric human receptor; not shown: Fc portion of human IgG
T1 sequence: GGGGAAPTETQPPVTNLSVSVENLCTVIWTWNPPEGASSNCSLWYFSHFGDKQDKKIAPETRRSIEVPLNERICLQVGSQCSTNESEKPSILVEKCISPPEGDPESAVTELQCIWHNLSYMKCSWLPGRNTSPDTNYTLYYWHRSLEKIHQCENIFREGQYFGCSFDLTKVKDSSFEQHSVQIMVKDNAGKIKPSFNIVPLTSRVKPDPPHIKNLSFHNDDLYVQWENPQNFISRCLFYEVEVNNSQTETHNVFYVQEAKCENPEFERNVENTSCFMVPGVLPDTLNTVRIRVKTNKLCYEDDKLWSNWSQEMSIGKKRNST
Method: (§1) Initially mouse mAb 1D9 is tested for its ability to inhibit the interaction of the chimeric human and mouse IL-13Rα1-Fc with IL-13 using both an ELISA- and Biosensor-based approach. […] Identical results are obtained with the ELISA-based assay. 1D9 is a potent inhibitor of the chimeric human receptor, compared with a control mAb, but has no effect on the binding of the chimeric mouse receptor to mouse IL-13 (FIG. 6). The Biosensor study incorporated a 1D9 dose-response analysis and a further dose-response analysis was undertaken using the ELISA.

[2] = target: T2, chimeric mouse IL-13Rα1-Fc (mouse; human, UniProt O09030 26-340); assay: Biosensor blocking assay: mouse IL-13Rα1-Fc at 2 ug/ml pre-incubated 1 hour with titrated 1D9, then passed over immobilised IL-13
T2 construct: extracellular domain; Bought (R & D Systems); Preformed disulphide-bonded dimer; also called mIL-13Rα1-Fc; chimeric mouse receptor; not shown: Fc portion of human IgG
T2 sequence (looked up): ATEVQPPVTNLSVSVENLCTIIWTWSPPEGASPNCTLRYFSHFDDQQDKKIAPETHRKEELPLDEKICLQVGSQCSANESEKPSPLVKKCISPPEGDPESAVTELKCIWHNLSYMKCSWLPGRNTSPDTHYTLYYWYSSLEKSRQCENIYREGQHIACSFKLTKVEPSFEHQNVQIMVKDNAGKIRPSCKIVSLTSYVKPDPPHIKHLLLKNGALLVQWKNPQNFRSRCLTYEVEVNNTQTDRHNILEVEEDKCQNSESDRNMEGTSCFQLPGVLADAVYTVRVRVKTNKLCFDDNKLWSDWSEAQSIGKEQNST
Method: as §1

[3] = target: T3, FLAG-tagged IL-13Rα1-gp130 chimeric receptor (human); assay: Western blot of lysates of transfected COS cells after SDS-PAGE, probed with mAb 1D9
T3 construct: Extracellular domain of human IL-13Rα1 fused to transmembrane and cytoplasmic domains of gp130; On 293A12-derived cells (lines 3.1.2, 3.2.4) in the reporter assay; in COS cell lysates in the Western blot; also called IL-13Rα1-gp130 fusion; IL13Rα1/gp130 chimera
T3 chain: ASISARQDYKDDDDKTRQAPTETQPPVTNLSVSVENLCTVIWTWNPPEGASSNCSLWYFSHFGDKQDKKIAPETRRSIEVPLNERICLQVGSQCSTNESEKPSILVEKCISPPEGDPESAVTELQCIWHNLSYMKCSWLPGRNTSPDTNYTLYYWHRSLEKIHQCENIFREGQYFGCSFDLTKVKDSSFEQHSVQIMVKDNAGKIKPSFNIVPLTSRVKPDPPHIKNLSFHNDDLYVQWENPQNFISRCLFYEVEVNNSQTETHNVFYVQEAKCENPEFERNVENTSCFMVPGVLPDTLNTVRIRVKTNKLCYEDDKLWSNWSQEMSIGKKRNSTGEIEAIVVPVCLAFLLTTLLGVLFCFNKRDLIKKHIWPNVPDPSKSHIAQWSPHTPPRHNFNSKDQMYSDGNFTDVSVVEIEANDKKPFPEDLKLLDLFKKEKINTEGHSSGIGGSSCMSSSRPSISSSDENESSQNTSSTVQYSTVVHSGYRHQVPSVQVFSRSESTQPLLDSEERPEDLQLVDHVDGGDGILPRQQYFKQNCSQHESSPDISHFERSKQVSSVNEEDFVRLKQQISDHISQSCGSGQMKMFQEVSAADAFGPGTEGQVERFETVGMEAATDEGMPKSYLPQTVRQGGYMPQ
Text: FIG. 3 is a photographic representation showing transient expression of chimeric receptor constructs in COS cells. COS cells were transfected with pEFBOS encoding FLAG-tagged IL-13Rα1-gp130, FLAG-tagged IL-4Rα-gp130 (two independent clones) or control β-gal. Cell lysates were recovered at 72 hrs and after SDS-PAGE and Western transfer, probed with either an anti-FLAG antibody or the IL-13Rα1-specific mAb 1D9.

mouse IL-13Rα1 = target: T4, mouse IL-13Rα1 (mouse, UniProt O09030 26-340, limits assumed); assay: Western blot
T4 sequence (looked up): T2 sequence (looked up)

[4] = target: T1, chimeric human IL-13Rα1-Fc; assay: Biosensor blocking assay: human IL-13Rα1-Fc at 2 ug/ml pre-incubated 1 hour with titrated 1D9, then passed over immobilised human IL-13 (the blocked ligand)
Method: as §1

B1: murine monoclonal antibody 1D9 (antibody, IgG1, V domains shown)
VH: EVKLVESGGGLVKPGGSLKLSCAASGFTFSGYGMSWVRQTPEKRLEWVATISGLGGYTYYPDSVKGRFTISRDNAKNTLYLQMSSLRSDDTAFYYCARRFYGDYVGAMDYWGQGTSVTVSS
VL: DILMTQAAFSNPVTLGTSASISCRSSKSLLHSNGITYLYWYLQKPGQSPQLLIYQMSNLASGVPDRFSCSGSGTDFTLSISRVEAEDVGFYYCAQNLELPFTFGSGTKLEIE
notes: Murine hybridoma antibody (ECACC 03032101); also called mAb 1D9; mouse mAb 1D9
- IC50 [1]: ~0.02 µM
- binding result [2]: no binding (tested: about 50 µg/ml)
- binding result [3]: binds
- binding result (mouse IL-13Rα1): no binding
- IC50 (read off the curve) [4]: ~2 mg/L
